According to PMC7360965 (The EMBO Journal, 2020):
Numbering of substitutions follows the chain as printed. Numbers in names are those of the source. Each block holds one binder with its values, some of them ahead of it. Ends that are not written are not given here.

Molecular target: F-actin (filamentous actin), actin purified from chicken breast (Gallus gallus) (chicken (Gallus gallus), UniProt P68139 1-377)
Assay: co-sedimentation
Conditions: both partners purified

B2: FAM-lifeAct-17 peptide (full-length lifeAct) (peptide)
peptide: MGVADLIKKFESISKEE
modifications: also: FAM label, position not given here
notes: also called lifeAct peptide; source: synthetic peptide (custom synthesized, LifeTein, USA)
Kd: 2200 nM

B3: Human UTRN-ABD (amino acids 1-261) H29A (domain or fragment)
chain: MAKYGEHEASPDNGQNEFSDIIKSRSDEANDVQKKTFTKWINARFSKSGKPPINDMFTDLKDGRKLLDLLEGLTGTSLPKERGSTRVHALNNVNRVLQVLHQNNVELVNIGGTDIVDGNHKLTLGLLWSIILHWQVKDVMKDVMSDLQQTNSEKILLSWVRQTTRPYSQVNVLNFTTSWTDGLAFNAVLHRHKPDLFSWDKVVKMSPIERLEHAFSKAQTYLGIEKLLDPEDVAVQLPDKKSIIMYLTSLFEVLPQQVTID
notes: source: E. coli Rosetta DE3, purified (His-Trap, Superdex-200)
Kd: 2800 nM

B4: Human UTRN-ABD (amino acids 1-261) I22D (domain or fragment)
chain: B3 chain with I22D, A29H
notes: as for B3
Kd: 38000 nM

Further lines, results first:

Kd: 1200 nM
B1: FAM-lifeAct-14 peptide (carboxy-terminal truncated version of lifeAct) (peptide)
peptide: MGVADLIKKFESIS
modifications: not fully specified (N-terminus); also: FAM label, position not given here
notes: source: synthetic peptide (custom synthesized, LifeTein, USA)

Kd: 55000 nM
B5: Human UTRN-ABD (amino acids 1-261) N109A (domain or fragment)
chain: B3 chain with A29H, N109A
notes: as for B3

Kd: > 100000 nM
B6: Human UTRN-ABD (amino acids 1-261) V87D (domain or fragment)
chain: B3 chain with A29H, V87D
notes: also called UTRN-V87D; source: E. coli Rosetta DE3, purified (His-Trap, Superdex-200)
